Data from US20210063414A1, “METHODS FOR PREVENTING AND/OR TREATING BONE LOSS CONDITIONS BY MODULATING IRISIN” (Dana-Farber Cancer Institute, Inc., priority 2018, published 2021).

Key:
Test in all cases: Crosslinking/co-immunoprecipitation/mass spectrometry (TMT quantitative proteomics) to identify irisin receptors
Assay type in all cases: binding
[1] = molecular target: T1, MLO-Y4 cell surface proteins (Mus musculus, UniProt Q8R1I1); details: co-precipitated protein Uqcr10 (QCR9_MOUSE)
T1 construct: endogenous in cells; host or cells: MLO-Y4
T1 sequence (Q8R1I1 1-64): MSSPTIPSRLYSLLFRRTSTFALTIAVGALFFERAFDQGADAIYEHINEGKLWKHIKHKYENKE
In short: (§1)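 Mouse MLO-Y4 cells were switched to serum-free FreeStyle medium for 4 h, chilled, then exposed to 10 nM His-tagged irisin (or adipsin as control) for 20 min. Cells were crosslinked with 1.5 mM DTSSP (30 min, ice), and bound proteins were pulled down on Ni-NTA and eluted with 250 mM imidazole. Eluates were separated by SDS-PAGE, trypsin-digested in gel, TMT 6-plex labelled and quantified by MS3-based LC-MS/MS on an Orbitrap Fusion Lumos.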

[2] = molecular target: T2, MLO-Y4 cell surface proteins (Mus musculus, UniProt Q9D051); details: co-precipitated protein Pdhb (ODPB_MOUSE)
T2 construct: endogenous in cells; host or cells: MLO-Y4
T2 sequence (Q9D051 31-359): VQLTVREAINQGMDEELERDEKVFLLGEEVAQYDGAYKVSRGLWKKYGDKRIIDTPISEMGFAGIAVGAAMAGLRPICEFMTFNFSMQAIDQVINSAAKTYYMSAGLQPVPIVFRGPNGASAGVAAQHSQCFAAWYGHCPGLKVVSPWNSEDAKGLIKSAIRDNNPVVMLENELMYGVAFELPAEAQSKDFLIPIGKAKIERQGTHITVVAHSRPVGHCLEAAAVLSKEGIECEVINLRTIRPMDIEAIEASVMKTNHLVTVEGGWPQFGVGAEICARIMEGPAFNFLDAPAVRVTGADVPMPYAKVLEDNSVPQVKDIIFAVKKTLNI
In short: as §1

[3] = molecular target: T3, MLO-Y4 cell surface proteins (Mus musculus, UniProt P48997); details: co-precipitated protein Ivl (INVO_MOUSE)
T3 construct: endogenous in cells; host or cells: MLO-Y4
T3 sequence (P48997 1-467): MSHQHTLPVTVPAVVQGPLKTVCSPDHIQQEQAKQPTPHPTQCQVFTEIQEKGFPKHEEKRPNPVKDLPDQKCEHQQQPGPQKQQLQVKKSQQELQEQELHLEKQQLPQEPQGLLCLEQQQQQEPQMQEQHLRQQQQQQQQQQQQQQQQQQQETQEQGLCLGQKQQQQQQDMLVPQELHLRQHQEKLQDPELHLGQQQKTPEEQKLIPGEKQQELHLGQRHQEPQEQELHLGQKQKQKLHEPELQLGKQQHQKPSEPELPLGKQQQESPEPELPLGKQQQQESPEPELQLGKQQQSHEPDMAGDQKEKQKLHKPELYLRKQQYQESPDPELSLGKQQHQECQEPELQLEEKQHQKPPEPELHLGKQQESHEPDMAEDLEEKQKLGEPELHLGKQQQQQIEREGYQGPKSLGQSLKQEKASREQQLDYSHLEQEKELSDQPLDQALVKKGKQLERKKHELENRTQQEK
In short: as §1

B1: irisin: secreted cleaved form of FNDC5; recombinant human/mouse irisin with C-terminal his tag produced in HEK293 cells (protein)
chain: DSPSAPVNVTVRHLKANSAVVSWDVLEDEVVIGFAISQQKKDVRMLRFIQEVNTTTRSCALWDLEEDTEYIVHVQAISIQGQSPASEPVLFKTPREAEKMASKNKDEVTMKE
modifications: left off: small tags and cut ends
notes: secreted cleaved form of FNDC5; recombinant human/mouse irisin with C-terminal his tag produced in HEK293 cells
For B1, the TMT signal-to-noise ratio [1] was 125.477, the “irisin/adipsin TMT signal-to-noise ratio” value [1] was 0.516 and the TMT signal-to-noise ratio [2] was 123.1. For the same molecule, the “irisin/adipsin TMT signal-to-noise ratio” value [2] was 0.337, the TMT signal-to-noise ratio [3] was 13.3857 and the “irisin/adipsin TMT signal-to-noise ratio” value [3] was 0.060.
